US20250003951A1 (OXFORD UNIVERSITY INNOVATION, published 2025)
Each block holds one binder with its values, some of them ahead of it.

Experiments:
Test in all cases: cell-based or functional assay
OX1149-290 = target: T1, OX1149-290 (human)
T1 peptide: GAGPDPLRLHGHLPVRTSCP

OX993-413 = target: T2, OX993-413 (human)
T2 peptide: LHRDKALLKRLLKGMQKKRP

OX993-414 = target: T3, OX993-414 (human)
T3 peptide: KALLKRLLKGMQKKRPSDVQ

OX1149-190 = target: T4, OX1149-190 (human)
T4 peptide: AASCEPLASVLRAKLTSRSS

OX628-81 = target: T5, OX628-81 (human)
T5 peptide: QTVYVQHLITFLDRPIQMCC

OX628-80 = target: T6, OX628-80 (human)
T6 peptide: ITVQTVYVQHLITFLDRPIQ

OX289-073 = target: T7, OX289-073 (human)
T7 peptide: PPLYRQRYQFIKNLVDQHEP

OX289-074 = target: T8, OX289-074 (human)
T8 peptide: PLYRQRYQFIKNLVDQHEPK

- Clone size (percent repertoire), IFNγ+ sorted T cells after peptide stimulation (OX1149-290): 7 % of repertoire
B1: OX1149 Peptide 290 clone 2 TCR (TCR, V domains shown)
V domain 1: RGNGKNQVEQSPQSLIILEGKNCTLQCNYTVSPFSNLRWYKQDTGRGPVSLTIMTFSENTKSNGRYTATLDADTKQSSLHITASQLSDSASYICVVTGGANNLFFGTGTRLTVIP
V domain 2: KAGVTQTPRYLIKTRGQQVTLSCSPISGHRSVSWYQQTPGQGLQFLFEYFSETQRNKGNFPGRFSGRQFSNSRSEMNVSTLELGDSALYLCASSEAGEWTQYFGPGTRLTVLE

- Clone size (percent repertoire), IFNγ+ sorted T cells after peptide stimulation (OX993-413): 13.7 % of repertoire
- Clone size (percent repertoire), IFNγ+ sorted T cells after peptide stimulation (OX993-414): 13.7 % of repertoire
B2: OX993 Peptides 413/414 clone 2 TCR (TCR)
TCR alpha: AQSVTQLGSHVSVSEGALVLLRCNYSSSVPPYLFWYVQYPNQGLQLLLKYTTGATLVKGINGFEAEFKKSETSFHLTKPSAHMSDAAEYFCAVSPPAQKLVFGTGTRLLVSPNIQNPDPAVYQLRD
TCR beta 1: NAGVTQTPKFQVLKTGQSMTLQCAQDMNHEYMSWYRQDPGMGLRLIHYSVGAGITDQGEVPNGYNVSRSTTEDFPLRLLSAAPSQTSVYFCASQETGVGGELFFGEGSRLTVLEDLKNVFPPEVAVFEPS
TCR beta 2: NAGVTQTPKFQVLKTGQSMTLQCAQDMNHEYMSWYRQDPGMGLRLIHYSVGAGITDQGEVPNGYNVSRSTTEDFPLRLLSAAPSQTSVYFCASSTTAVVSPLHFGNGTRLTVTEDLNKVFPPEVAVFEPS

- Clone size (percent repertoire), IFNγ+ sorted T cells after peptide stimulation (OX1149-190): 5.7 % of repertoire
B3: OX1149 Peptide 190 clone 4 TCR (TCR, V domains shown)
V domain 1: SQQGEEDPQALSIQEGENATMNCSYKTSINNLQWYRQNSGRGLVHLILIRSNEREKHSGRLRVTLDTSKKSSSLLITASRAADTASYFCATKGGNNRLAFGKGNQVVVIP
V domain 2: EPEVTQTPSHQVTQMGQEVILRCVPISNHLYFYWYRQILGQKVEFLVSFYNNEISEKSEIFDDQFSVERPDGSNFTLKIRSTKLEDSAMYFCASSAWTGETGYTFGSGTRLTVVE

- Clone size (percent repertoire), IFNγ+ sorted T cells after peptide stimulation (OX1149-190): 9 % of repertoire
B4: OX1149 Peptide 190 clone 3 TCR (TCR, V domains shown)
V domain 1: GENVEQHPSTLSVQEGDSAVIKCTYSDSASNYFPWYKQELGKRPQLIIDIRSNVGEKKDQRIAVTLNKTAKHFSLHITETQPEDSAVYFCAARGGSNYKLTFGKGTLLTVNP
V domain 2: DAGVIQSPRHEVTEMGQEVTLRCKPISGHDYLFWYRQTMMRGLELLIYFNNNVPIDDSGMPEDRFSAKMPNASFSTLKIQPSEPRDSAVYFCASSTGGEQYFGPGTRLTVTE

- Clone size (percent repertoire), IFNγ+ sorted T cells after peptide stimulation (OX628-81): 55.1 % of repertoire
- Clone size (percent repertoire), IFNγ+ sorted T cells after peptide stimulation (OX628-80): 55.1 % of repertoire
B5: OX628 Peptides 80/81 clone 1 TCR (TCR, V domains shown)
V domain 1: GQQLNQSPQSMFIQEGEDVSMNCTSSSIFNTWLWYKQEPGEGPVLLIALYKAGELTSNGRLTAQFGITRKDSFLNISASIPSDVGIYFCAGHQIQGAQKLVFGQGTRLTINP
V domain 2: NAGVTQTPKFRILKIGQSMTLQCTQDMNHNYMYWYRQDPGMGLKLIYYSVGAGITDKGEVPNGYNVSRSTTEDFPLRLELAAPSQTSVYFCASSYSGMNTEAFFGQGTRLTVVE

- Clone size (percent repertoire), IFNγ+ sorted T cells after peptide stimulation (OX993-413): 11.6 % of repertoire
- Clone size (percent repertoire), IFNγ+ sorted T cells after peptide stimulation (OX993-414): 11.6 % of repertoire
B6: OX993 Peptides 413/414 clone 3 TCR (TCR, V domains shown)
V domain 1: RGEDVEQSLFLSVREGDSSVINCTYTDSSSTYLYWYKQEPGAGLQLLTYIFSNMDMKQDQRLTVLLNKKDKHLSLRIADTQTGDSAIYFCAEKKEGFKTIFGAGTRLFVKA
V domain 2: NAGVTQTPKFQVLKTGQSMTLQCAQDMNHEYMSWYRQDPGMGLRLIHYSVGAGITDQGEVPNGYNVSRSTTEDFPLRLLSAAPSQTSVYFCASQETGVGGELFFGEGSRLTVLE

- Clone size (percent repertoire), IFNγ+ sorted T cells after peptide stimulation (OX1149-190): 4.8 % of repertoire
B7: OX1149 Peptide 190 clone 5 TCR (TCR, V domains shown)
V domain 1: DQQVKQNSPSLSVQEGRISILNCDYTNSMFDYFLWYKKYPAEGPTFLISISSIKDKNEDGRFTVFLNKSAKHLSLHIVPSQPGDSAVYFCAATRAGGTSYGKLTFGQGTILTVHP
V domain 2: SQTIHQWPATLVQPVGSPLSLECTVEGTSNPNLYWYRQAAGRGLQLLFYSVGIGQISSEVPQNLSASRPQDRQFILSSKKLLLSDSGFYLCAWSVLAGVSQYFGPGTRLLVLE

- Clone size (percent repertoire), IFNγ+ sorted T cells after peptide stimulation (OX289-073): 25.6 % of repertoire
- Clone size (percent repertoire), IFNγ+ sorted T cells after peptide stimulation (OX289-074): 25.6 % of repertoire
B8: OX289 Peptides 73/74 clone 2 TCR (TCR)
TCR alpha: ELKVEQNPLFLSMQEGKNYTIYCNYSTTSDRLYWYRQDPGKSLESLFVLLSNGAVKQEGRLMASLDTKARLSTLHITAAVHDLSATYFCAVEETSGSRLTFGEGTQLTVNPDIQNPDPAVYQLRD
TCR beta 1: EAQVTQNPRYLITVTGKKLTVTCSQNMNHEYMSWYRQDPGLGLRQIYYSMNVEVTDKGDVPEGYKVSRKEKRNFPLILESPSPNQTSLYFCASSLRQGISPEQFFGPGTRLTVLEDLKNVFPPEVAVFEPS
TCR beta 2: EAQVTQNPRYLITVTGKKLTVTCSQNMNHEYMSWYRQDPGLGLRQIYYSMNVEVTDKGDVPEGYKVSRKEKRNFPLILESPSPNQTSLYFCASSERQGITEAFFGQGTRLTVVEDLNKVFPPEVAVFEPS

- Clone size (percent repertoire), IFNγ+ sorted T cells after peptide stimulation (OX628-81): 4.2 % of repertoire
- Clone size (percent repertoire), IFNγ+ sorted T cells after peptide stimulation (OX628-80): 4.2 % of repertoire
B9: OX628 Peptides 80/81 clone 3 TCR (TCR, V domains shown)
V domain 1: QKEVEQNSGPLSVPEGAIASLNCTYSDRGSQSFFWYRQYSGKSPELIMSIYSNGDKEDGRFTAQLNKASQYVSLLIRDSQPSDSATYLCAVSAGGTSYGKLTFGQGTILTVHP
V domain 2: DTAVSQTPKYLVTQMGNDKSIKCEQNLGHDTMYWYKQDSKKFLKIMFSYNNKELIINETVPNRFSPKSPDKAHLNLHINSLELGDSAVYFCASSQVLRGEQYFGPGTRLTVTE

- Clone size (percent repertoire), IFNγ+ sorted T cells after peptide stimulation (OX993-413): 26.7 % of repertoire
- Clone size (percent repertoire), IFNγ+ sorted T cells after peptide stimulation (OX993-414): 26.7 % of repertoire
B10: OX993 Peptides 413/414 clone 1 TCR (TCR)
TCR alpha 1: GESVGLHLPTLSVQEGDNSIINCAYSNSASDYFIWYKQESGKGPQFIIDIRSNMDKRQGQRVTVLLNKTVKHLSLQIAATQPGDSAVYFCAEIGSGAGSYQLTFGKGTKLSVIPNIQNPDPAVYQLRD
TCR alpha 2: GESVGLHLPTLSVQEGDNSIINCAYSNSASDYFIWYKQESGKGPQFIIDIRSNMDKRQGQRVTVLLNKTVKHLSLQIAATQPGDSAVYFCAENQGGSSYKLIFGSGTRLLVRPDIQNPDPAVYQLRD
TCR beta: DTGVSQNPRHKITKRGQNVTFRCDPISEHNRLYWYRQTLGQGPEFLTYFQNEAQLEKSRLLSDRFSAERPKGSFSTLEIQRTEQGDSAMYLCASSSQSGVDTEAFFGQGTRLTVVEDLNKVFPPEVAVFEPS

- Clone size (percent repertoire), IFNγ+ sorted T cells after peptide stimulation (OX1149-290): 20.4 % of repertoire
B11: OX1149 Peptide 290 clone 1 TCR (TCR, V domains shown)
V domain 1: GENVEQHPSTLSVQEGDSAVIKCTYSDSASNYFPWYKQELGKRPQLIIDIRSNVGEKKDQRIAVTLNKTAKHFSLHITETQPEDSAVYFCAASIATDKLIFGTGTRLQVFP
V domain 2: KAGVTQTPRYLIKTRGQQVTLSCSPISGHRSVSWYQQTPGQGLQFLFEYFSETQRNKGNFPGRFSGRQFSNSRSEMNVSTLELGDSALYLCASSWRGQGEGYTFGSGTRLTVVE

- Clone size (percent repertoire), IFNγ+ sorted T cells after peptide stimulation (OX289-073): 8.67 % of repertoire
- Clone size (percent repertoire), IFNγ+ sorted T cells after peptide stimulation (OX289-074): 8.67 % of repertoire
B12: OX289 Peptides 73/74 clone 3 TCR (TCR)
TCR alpha: AQSVTQLDSQVPVFEEAPVELRCNYSSSVSVYLFWYVQYPNQGLQLLLKYLSGSTLVKGINGFEAEFNKSQTSFHLRKPSVHISDTAEYFCAVSGTGANSKLTFGKGITLSVRPDIQNPDPAVYQLRD
TCR beta 1: GAGVSQSPSNKVTEKGKDVELRCDPISGHTALYWYRQSLGQGLEFLIYFQGNSAPDKSGLPSDRFSAERTGGSVSTLTIQRTQQEDSAVYLCASSDPISGRGDEQFFGPGTRLTVLEDLKNVFPPEVAVFEPS
TCR beta 2: GAGVSQSPSNKVTEKGKDVELRCDPISGHTALYWYRQSLGQGLEFLIYFQGNSAPDKSGLPSDRFSAERTGGSVSTLTIQRTQQEDSAVYLCASSFGGGAWNEQFFGPGTRLTVLEDLKNVFPPEVAVFEPS

- Clone size (percent repertoire), IFNγ+ sorted T cells after peptide stimulation (OX1149-290): 4.8 % of repertoire
B13: OX1149 Peptide 290 clone 3 TCR (TCR)
TCR alpha 1: GDAKTTQPNSMESNEEEPVHLPCNHSTISGTDYIHWYRQLPSQGPEYVIHGLTSNVNNRMASLAIAEDRKSSTLILHRATLRDAAVYYCILVEGNEKLTFGTGTRLTIIPNIQNPDPAVYQLRD
TCR alpha 2: SQELEQSPQSLIVQEGKNLTINCTSSKTLYGLYWYKQKYGEGLIFLMMLQKGGEEKSHEKITAKLDEKKQQSSLHITASQPSHAGIYLCGADVQGSQGNLIFGKGTKLSVKPNIQNPDPAVYQLRD
TCR beta: EPEVTQTPSHQVTQMGQEVILRCVPISNHLYFYWYRQILGQKVEFLVSFYNNEISEKSEIFDDQFSVERPDGSNFTLKIRSTKLEDSAMYFCASRLGGRTTEAFFGQGTRLTVVEDLNKVFPPEVAVFEPS

- Clone size (percent repertoire), IFNγ+ sorted T cells after peptide stimulation (OX628-81): 13.5 % of repertoire
- Clone size (percent repertoire), IFNγ+ sorted T cells after peptide stimulation (OX628-80): 13.5 % of repertoire
B14: OX628 Peptides 80/81 clone 2 TCR (TCR, V domains shown)
V domain 1: GQQLNQSPQSMFIQEGEDVSMNCTSSSIFNTWLWYKQDPGEGPVLLIALYKAGELTSNGRLTAQFGITRKDSFLNISASIPSDVGIYFCAGANNNARLMFGDGTQLVVKP
V domain 2: SAVISQKPSRDICQRGTSLTIQCQVDSQVTMMFWYRQQPGQSLTLIATANQGSEATYESGFVIDKFPISRPNLTFSTLTVSNMSPEDSSIYLCSVTPGGGVNTEAFFGQGTRLTVVE

- Clone size (percent repertoire), IFNγ+ sorted T cells after peptide stimulation (OX289-073): 32.3 % of repertoire
- Clone size (percent repertoire), IFNγ+ sorted T cells after peptide stimulation (OX289-074): 32.3 % of repertoire
B15: OX289 Peptides 73/74 clone 1 TCR (TCR, V domains shown)
V domain 1: RGEDVEQSLFLSVREGDSSVINCTYTDSSSTYLYWYKQEPGAGLQLLTYIFSNMDMKQDQRLTVLLNKKDKHLSLRIADTQTGDSAIYFCAESPSDGQKLLFARGTMLKVDL
V domain 2: EAQVTQNPRYLITVTGKKLTVTCSQNMNHEYMSWYRQDPGLGLRQIYYSMNVEVTDKGDVPEGYKVSRKEKRNFPLILESPSPNQTSLYFCASSLRQGISPEQFFGPGTRLTVLE
